Target: the microbial proteins (competition ELISA with heparin, data not shown)
Experiment: ELISA; data not shown; immobilised microbial proteins incubated with vitronectin (5 μg/ml) that was pre-incubated with heparin (10 μM)

## vitronectin purified from human plasma (natural protein)
  percent inhibition by heparin (10 μM): 68 to 89%
